Positions count from the first letter of the chain named. Numbers in names are those of the source.
B1: actKR (actinorhodin type II polyketide ketoreductase) (Streptomyces coelicolor A3(2); F189A) (protein)
chain: MATQDSEVALVTGATSGIGLEIARRLGKEGLRVFVCARGEEGLRTTLKELREAGVEADGRTCDVRSVPEIEALVAAVVERYGPVDVLVNNAGRPGGGATAELADELWLDVVETNLTGVFRVTKQVLKAGGMLERGTGRIVNIASTGGKQGVVHAAPYSASKHGVVGFTKALGLELARTGITVNAVCPGAVETPMAASVREHYSDIWEVSTEEAFDRITARVPIGRYVQPSEVAEMVAYLIGPGAAAVTAQALNVCGGLGNY
B2: actKR (actinorhodin type II polyketide ketoreductase) (Streptomyces coelicolor A3(2); T145A) (protein)
chain: B1 chain with T145A, A189F
B3: actKR (actinorhodin type II polyketide ketoreductase) (Streptomyces coelicolor A3(2); D109R) (protein)
chain: B1 chain with D109R, A189F
B4: actKR (actinorhodin type II polyketide ketoreductase) (Streptomyces coelicolor A3(2); V198A) (protein)
chain: B1 chain with A189F, V198A
B5: actKR (actinorhodin type II polyketide ketoreductase) (Streptomyces coelicolor A3(2)) (protein)
chain: B1 chain with A189F
B6: actKR (actinorhodin type II polyketide ketoreductase) (Streptomyces coelicolor A3(2); M194W) (protein)
chain: B1 chain with A189F, M194W

How the values were obtained:
[1] = molecular target: actKR (actinorhodin type II polyketide ketoreductase) (Streptomyces coelicolor, UniProt P16544, R38A); experiment: NADPH fluorescence titration; type: binding
[2] = molecular target: actKR (actinorhodin type II polyketide ketoreductase) (Streptomyces coelicolor, UniProt P16544, R93A); experiment: NADPH fluorescence titration; type: binding
[3] = molecular target: actKR (actinorhodin type II polyketide ketoreductase) (Streptomyces coelicolor, UniProt P16544); experiment: NADPH fluorescence titration; type: binding
[4] = molecular target: actKR (actinorhodin type II polyketide ketoreductase) (Streptomyces coelicolor, UniProt P16544, R220A); experiment: NADPH fluorescence titration; type: binding
[5] = molecular target: actKR (actinorhodin type II polyketide ketoreductase) (Streptomyces coelicolor, UniProt P16544, R177A); experiment: NADPH fluorescence titration; type: binding
[6] = molecular target: actKR (actinorhodin type II polyketide ketoreductase) (Streptomyces coelicolor, UniProt P16544, R65A); experiment: NADPH fluorescence titration; type: binding
[7] = substrate: O=C1CCC[C@H]2CCCC[C@H]12; experiment: purified protein; type: biochemical, Streptomyces coelicolor; details: co-substrate NADPH

Sequence of actKR (actinorhodin type II polyketide ketoreductase) (Streptomyces coelicolor, UniProt P16544, R177A) (P16544 whole entry R177A): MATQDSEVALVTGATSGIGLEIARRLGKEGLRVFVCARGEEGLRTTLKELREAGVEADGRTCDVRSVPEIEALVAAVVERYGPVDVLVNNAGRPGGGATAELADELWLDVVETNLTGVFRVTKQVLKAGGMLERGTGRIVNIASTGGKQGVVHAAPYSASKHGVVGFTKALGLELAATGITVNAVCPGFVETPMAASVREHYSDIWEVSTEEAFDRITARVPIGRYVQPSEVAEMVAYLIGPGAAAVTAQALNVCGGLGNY
Sequence of actKR (actinorhodin type II polyketide ketoreductase) (Streptomyces coelicolor, UniProt P16544, R38A) (P16544 whole entry R38A): as the sequence (P16544 whole entry R177A) above, with R38A, A177R counted along it
Sequence of actKR (actinorhodin type II polyketide ketoreductase) (Streptomyces coelicolor, UniProt P16544, R65A) (P16544 whole entry R65A): as the sequence (P16544 whole entry R177A) above, with R65A, A177R counted along it
Sequence of actKR (actinorhodin type II polyketide ketoreductase) (Streptomyces coelicolor, UniProt P16544, R93A) (P16544 whole entry R93A): as the sequence (P16544 whole entry R177A) above, with R93A, A177R counted along it
Sequence of actKR (actinorhodin type II polyketide ketoreductase) (Streptomyces coelicolor, UniProt P16544) (P16544 whole entry): as the sequence (P16544 whole entry R177A) above, with A177R counted along it
Sequence of actKR (actinorhodin type II polyketide ketoreductase) (Streptomyces coelicolor, UniProt P16544, R220A) (P16544 whole entry R220A): as the sequence (P16544 whole entry R177A) above, with A177R, R220A counted along it

Molecule | Kd [1] [nM] | Kd [2] [nM] | Kd [3] [nM] | Kd [4] [nM] | Kd [5] [nM] | Kd [6] [nM] | Km [7] [µM] | kcat [7] [s⁻¹] | kcat/Km [7] [M⁻¹ s⁻¹]
NC(=O)C1=CN([C@@H]2O[C@H](COP(=O)(O)OP(=O)(O)OC[C@H]3O[C@@H](n4cnc5c(N)ncnc54)[C@H](OP(=O)(O)O)[C@@H]3O)[C@@H](O)[C@H]2O)C=CC1 [NADPH] | 4300 ± 400 | 6430 ± 680 | 1520 ± 90 | 1990 ± 160 | 1170 ± 100 | 1830 ± 210 |  |  | 
B1 |  |  |  |  |  |  | 8630 ± 2010 | 0.049 ± 0.005 | 5.7 ± 1.5
B2 |  |  |  |  |  |  | 420 ± 60 | 0.18 ± 0.008 | 420 ± 60
B3 |  |  |  |  |  |  | 1250 ± 400 | 0.078 ± 0.01 | 62 ± 21
B4 |  |  |  |  |  |  | 15500 ± 1490 | 0.24 ± 0.01 | 16 ± 2
B5 |  |  |  |  |  |  | 760 ± 90 | 2.55 ± 0.12 | 3230 ± 320
B6 |  |  |  |  |  |  | 3220 ± 650 | 0.43 ± 0.06 | 130 ± 30
